# Data from article PMC4627417.
# Experiments:
# Experiment in all cases: biotin-peptide pull-down, MUDPIT mass spectrometry
# RPRD1B = RPRD1B (UniProt Q9NQG5)
# RPRD2 = RPRD2 (UniProt Q5VT52)
# SCAF4 = SCAF4 (UniProt O95104)
# SCAF8 = SCAF8 (UniProt Q9UPN6)
# [1] = reference: pS2-CTD peptide, sites Y1
# [2] = reference: unphosphorylated CTD peptide, sites Y1
# [3] = reference: unphosphorylated CTD peptide, sites S5
# [4] = reference: unphosphorylated CTD peptide, sites S2
substance,measurement,setting,value
RNA polymerase II largest subunit (Rpb1) C-terminal repeated domain (CTD) (from UniProt P24928) pY1pS2-CTD peptide,other: number of peptides identified,RPRD1B; [1],weaker; reference 40
same,other: number of peptides identified,RPRD2; [1],weaker; reference 63
same,other: number of peptides identified,SCAF4; [1],weaker; reference 12
same,other: number of peptides identified,SCAF8; [1],lost; reference 17
RNA polymerase II largest subunit (Rpb1) C-terminal repeated domain (CTD) (from UniProt P24928) pY1-CTD peptide,other: number of peptides identified,RPRD1B; [2],none in both; reference 0
same,other: number of peptides identified,RPRD2; [2],none in both; reference 0
same,other: number of peptides identified,SCAF4; [2],none in both; reference 0
same,other: number of peptides identified,SCAF8; [2],none in both; reference 0
RNA polymerase II largest subunit (Rpb1) C-terminal repeated domain (CTD) (from UniProt P24928) pS5-CTD peptide,other: number of peptides identified,RPRD1B; [3],none in both; reference 0
same,other: number of peptides identified,RPRD2; [3],none in both; reference 0
same,other: number of peptides identified,SCAF4; [3],none in both; reference 0
same,other: number of peptides identified,SCAF8; [3],none in both; reference 0
RNA polymerase II largest subunit (Rpb1) C-terminal repeated domain (CTD) (from UniProt P24928) pS2-CTD peptide,other: number of peptides identified,RPRD1B; [4],gained; reference 0
same,other: number of peptides identified,RPRD2; [4],gained; reference 0
same,other: number of peptides identified,SCAF4; [4],gained; reference 0
same,other: number of peptides identified,SCAF8; [4],gained; reference 0
